# In US11110171B2, “PD-1 related cancer therapy” (New York University, priority 2017, dated 2021):
# T1: SHP2 binding to GST-PD1 (Homo sapiens, UniProt Q06124)
# T1 construct: endogenous in cells; host or cells: SAP-knockdown Jurkat T cells (SHP2); GST-PD-1 tail made in BL21 E. coli
# T1 sequence (Q06124 2-593 limits assumed): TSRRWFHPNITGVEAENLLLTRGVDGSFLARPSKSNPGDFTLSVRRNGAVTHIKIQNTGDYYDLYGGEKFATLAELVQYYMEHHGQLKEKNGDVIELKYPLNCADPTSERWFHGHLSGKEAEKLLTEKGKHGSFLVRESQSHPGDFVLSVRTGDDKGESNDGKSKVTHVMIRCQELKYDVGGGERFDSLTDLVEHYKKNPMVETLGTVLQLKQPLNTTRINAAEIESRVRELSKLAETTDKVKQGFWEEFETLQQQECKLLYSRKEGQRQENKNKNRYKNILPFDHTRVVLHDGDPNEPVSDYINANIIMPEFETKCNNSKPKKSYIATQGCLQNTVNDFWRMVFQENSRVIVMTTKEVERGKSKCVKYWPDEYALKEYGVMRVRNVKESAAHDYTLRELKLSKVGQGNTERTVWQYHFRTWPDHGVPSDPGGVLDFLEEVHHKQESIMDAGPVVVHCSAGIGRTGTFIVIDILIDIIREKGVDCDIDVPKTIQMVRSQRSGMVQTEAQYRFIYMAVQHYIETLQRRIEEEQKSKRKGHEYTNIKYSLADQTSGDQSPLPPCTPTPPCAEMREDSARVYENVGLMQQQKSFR
# T1 sequence (Q15116 192-288 partner limits assumed): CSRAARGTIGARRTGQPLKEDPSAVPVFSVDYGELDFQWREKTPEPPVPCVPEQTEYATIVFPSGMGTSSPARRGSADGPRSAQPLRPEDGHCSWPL
# B1: SAP: Recombinant human SAP (His tagged), signaling lymphocytic activation molecule-associated protein, purchased from Abcam (protein, UniProt O60880 1-128, looked up)
# SH2 domain-containing protein …: MDAVAVYHGKISRETGEKLLLATGLDGSYLLRDSESVPGVYCLCVLYHGYIYTYRVSQTETGSWSAETAPGVHKRYFRKIKNLISAFQKPDQGIVIPLQYPVEKKSSARSTQGTTGIREDPDVCLKAP
# modifications: His tag
# Target: T1, SHP2 binding to GST-PD1
# Experiment: Affinity purification of SHP2 by GST-PD1 with increasing concentrations of recombinant SAP
# Conditions: increasing concentrations of recombinant SAP added to SAP KD Jurkat cell lysate
# Experimental: FIG. 3. SAP is indirectly associated with PD-1. (ai) Pervanadate treated Jurkat T cells were transiently transfected with GFP-tagged PD-1 or GFP alone; Whole cell lysates (WCL) were immunoprecipitated with an anti-GFP antibody (IP: GFP), and samples were analyzed by immunoblotting. (aii) Densitometry values of data shown in ai. (b) Jurkat T cells were transfected with plasmids directing expression of the indicated fluorescent proteins and after 24 hours cells were stimulated with anti-CD3 antibodies and recombinant PDL2, followed by live-imaging. Bar, 10 μm. […] (di) Jurkat T cells were transfected with different versions of GFP-tagged PD-1, as indicated, followed by treatment with pervanadate; Whole-cell lysates (Input) were immunoprecipitated with an anti-GFP antibody (IP: GFP), and samples were analyzed by immunoblotting. […] (ei) 293T cells were transfected with plasmid directing expression of GFP-SAP or a control GFP plasmid, followed by treatment with pervanadate; Lysates were pulled-down with the GST-tagged PD-1 and samples were analyzed by immunoblotting. […] (gi) SHP2 KD and scrambled control Jurkat T cells were transfected with GFP-tagged PD-1, followed by treatment with pervanadate; Lysates were immunoprecipitated with an anti-GFP antibody (IP: GFP), and samples were analyzed by immunoblotting. […] Samples were analyzed by immunoblot. […]
molecule,measurement,value
B1,interference with the affinity-purification of SHP2 by GST-PD1,did not interfere
